In a protein production outcome set (Wang et al. 2014):

Assay: label from the status in PepcDB records

Sequence | protein production
SVDDDLYFIPKKKAEKKEEVKQEVKVVVPQKQNTTTVYAAPGSTVVVKDVKGKVRDVDEYNRRYTSRDNNFSMENDTLYIEEKPLNERGEWVNGFEGSQDDYEYAMRIVRFRNPRYAIPVSSPLYWDVVYGLPSWDWNVYDDGLYAYVFPTYTNRLWWDWRWNYPYGASWGFSWGWSSPWYYNSWYYPGYWGGGYWGGYWGYHHHHHHHYYPHYSGHGWGGGYWGGGHGWYGSSRRNPGIHAGRYTNSYGSSRPSRNNYVNSYDRNSRNSYVGNSRQNVRNSANSYRTATRNGSSSGRVVSGSDGVNSVRPNRSAIRTRTGATLSPSQAAGVRPGNSYSRPTEGRGSSYTRPSS | failed
DEWTDEQFKQLISFKTQPGGWGVTDVHVRYANSAKYTYNLPVLVSGSTDNTDDRLVSFSLRDDTLDILNFEKFGNRPELYFRELPQKYYSFPKELTIPAGQSHALLPIEFSLDGLDDSQKWALPLKVCEDANGTYAVNPRKYYRTAVLRPILFNEFSGRFSGSSLLGTMAGESDIKFSSTEIKLNVVTDSIVFFYAGQRTEDYEDRINYKVFLQFTGDKVDSKKDLYKMKIWAENEKLKFNSYSTPTYKVSSEMDATKTYLKHTYIVISDIDFDFVDYTSVPNYEIEYNMKGGLSVSRDLDTRKPDEDQGSDSKWW | not failed
LFTESAKAVLAIAQEEAKYFRHQSVGSEHLLLALVLEPNGIAGKTLRQLNTDTEDIREEIEHLSGYGTMQSPMGNNNLYLPYSPRAKQIFAYAGDEAKRLGAQKIGTEHLLLGLLRDEEILASRILVNLGLSLSKMRQLLLKKMG | failed
MRDHPADRLQSITVTAFYQEPNVPTHSLSDYTSWIERTWQGQVSFTELVTYAETLNSHPALCAALYRTWLQRNTGVFNSVAWFNLGVILFAENNLIDSIEAFQKALALSPAFPQARINLGLALERQGNAEAAIEQWQAVVENAITPEADQNTGPNQADQIKNLTMALNNIGRLQETRRQYQAATQALEKSLQLDPDQPDAIHHLIFQRQKQCQWPVYAPVGKVTEAVLHEHTSALAMLNISDAPEAQLTAALNYSRRKIPADLPRLSPANGYRHDKIRVAYCSSDFCTHPVAMLTVELFEHHDKNRFETYAFCWSPDDGSTLRQRILSAVDHYIPVHGKSDDEVAQLIRQHEIDILIDLQGQTSGAKTRMLAMRPAPMQITYLGLPATTGLPGIDYVIADRYLIPEEYARFYSEKPLYMPDVYQVSDRKREHSPAPTRKDCGLPARKFVFCSFNNNHKYTLEVFTTWMNILRRVPNSVLWLLADNPWARENLQKQAKAQGIDPKRLVFAERTMPADYLARYLVADLFLDTFPFNAGTTANDALWMGLPVLTMSGRSFASRMAGALLTAADLPELITHDLQTYEDKAVALAADAKARKTMRQKLALAKESGPLFDSLRFTRNLEQQYIALVSELQNPSQHINISAQPEPTKLGEPAQPNPIIATVQEAEALQARGDTQGAIQLYRQWLEHAHSGDEWIAQFNLGVLLRDGGDITGAQQAFQAVLKQKPDFVQARAALGKLPAPVTTESQKHGAIIGPLQTNSPISTKSKEQITQIFSETPKIKLLVEGWRGINHSFALVNQYHLYEWMRSSQLHIYHRDMPLLFSHWETNKNRGNTGLPGTYSQRLAQVQHWSGQTYDACFRIYSPVTLAPDDKHPVSTFLVTELGLDETQIAHFRPNLKAYFNMGGNIVTPSHWSKERIIEAGIPAEHIHLISHGVASNIFHPMHSDERAIHRQRLGFDREAVIFLNVAAPIWNKGLDLLIQAFVQCFHQNPHTRLLIKDQQAVYGISTKDTVLREITLLGESKNESLLNAIRVIPDLNLLQLRELYCIADYYVSPYRAEGFNLPVIEALVCGTPVIVTEGGATQDFCSEKNALFIEAVPYRNVKINDRHVNAYQAPILDSLITHLNVCAQDKPFSESQRLQNAASIAKNFTWAKAADTISRLFTQSNDCNTSTSQITGALHEEPQYCN | failed
MTELEDPSRDRLKHHFAQRVIHQARQILETWQRLQKAQWSVADMAELKEATLRLMRFAERFEQAEHVALAHEINQSLDAVDANRGRLNSHVITELNRLMQRLSRTGLRHGDRLEQTSLPPLRKPVYVVLQDHERAERLAKQLEFFGLSALSLHSVADFQRAMAQRHPAAIVMDVDFSGPGMGLELASQAQEGLEQKLPLLFFSVHETDTPTRLAAVRAGGEEFLTGALEASSLLEKIEVLTCVAQYEPYKVLIIDDSRAQAMHTERVLNAAGIVTRVLIDPIQAMSELADFQPDLIILDMYMPGCTGTELAKVIRHNDRYVSVPIIYLSAEDDQDKQLDAMSEGGDDFLTKPIKPRHLITTVRNRAARARNLKSRMVRDSLTGLYNHTHILQLLEDCSFRSRREGKPLCFAMLDIDHFKRVNDSHGHPMGDRVIKSLALFLKQRLRKTDFIGRYGGEEFAIVMPDTDIHNAHKVLDEIRHRFAEIHYPAQPADLFCTFSAGVVCLGADDDSLSLASQADNALYRAKHAGRNQVHSALVQAPYHIVLAEIEA | failed
MANFEDFLTLDLRIGTVTHAEEFKEARVPAIKLEIDFGELGMKQSSAQITKRYNPEDLIGQQIVAVVNFPPKRVAGFKSEVLVLGGVPEAGDVVLLQPNMELPNGTKIS | not failed
MYTKGSVSTRIAKYLFIILIVAGVISSLSLAIMSSNKYDAEAINISGSLRMQSYRLLYEMQEQPESVETNLRRYHISLHSSALLEVQNQFFTPNVLKHSYQNILQRWTNMEKYARQQDVKNYSKQLTDYVADVDYFVFELQRFSEQKWILGVSVLGFAMLLILLMVSYVIWYTNREVVKPLHLMTKASMQVQMRQFNHIPLDTRKQNELGTLARVFTQMSTELGQLYSRLEEAVNEKTQKLRQTNRTLSTLYQSAQLLNTNTINDKILNQVLNYIFISDHLNFVKVEVMGAEHWDITLGKQDANNELQIETLSVDNEELGVLSWQAGLPCPDPRIMQNLAQMLARALYFHKNLRQKEQLLLMEERSIIARELHDSLAQVLSFLQIQLTLLKHNLKKEDEQSKEKSLAIIANFEQALSGGYAQLRELLATFRLTIQEANLQLALKQVIDSLRSQTTMQMNVNCQLPSQSLNPQQLVHVLQIVREATTNAIKHSQGTVIEISARINAEGEYEILVEDDGVGIPNLEEPEGHYGLNIMAERCRQLNAQLHIHRREQGGTQVKITLPHTLY | failed
MNNPGLFQARWNLGKLVLCNLLPLALLGFWLWPTGQALCTVFDEWLFHHLNAPLASNSTWLHIWAVASLRPFDIVVGLIMLGLLIRGDWVFKAVDVRRAFFGFLSILILMVVIRALFSKLVAVMNWQHNSPSMVLEGAVHMSDYFPGWEKTWELKDRSSQSFPGDHASVLLIWGLFMGIFSRSIGQFLIVWGLTLLFMMPRLVAGAHWGQDDYIGGVLLAVLALGWGYYTPYAARMSNFLLRLTHPLFNLLSRMPVLSRMSVVRASSLLR | failed
MANKTIAQTGSATSPTTNKSGTYVEVPLQDTIPIIFVPGIMGSNIFNTVLGKPVWMIGNGISGQVKTLTKQMGKTPAELQTELDPLNTRVDTSGDIKVDRRLKLTEKTLRERYWGTVHWDSYGGILTYLQMVLNNVDLNEKPIYTTGLGGGYAAVQQMKQQEAVYEWKSLLNQTESSKWFPQQSFVPINQQEIEHLKKFHFPVYAMGYNWLQSSENGAALVAQKLDKIKQEYGARFHKFIIVTHSMGGLLTRRLVQLCSADIAGVV | failed
MRPVDEQWIEILRIQALCARYCLTIDTQDGEGWAGCFTEDGAFEFDGWVIRGRPALREYADAHARVVRGRHLTTDLLYEVDGDVATGRSASVVTLATAAGYKILGSGEYQDRLIKQDGQWRIAYRRLRNDRLVSDPSVAVNVADADVAAVVGHLLAAARRLGTQMSDT | not failed
MAAKQGESDPERKETRQKVDDDRKHEIEAAIVRIMKSRKKMQHNVLVAEVTQQLKARFLPSPVVIKKRIEGLIEREYLARTPEDRKVYTYVA | not failed
MREMQIMSQPEQSRLDLFIDRMVSQRACLEHAIAQTAGLSGPVYELGLGNGRTYHHLRQHVQGREIYVFERAVASHPDSTPPEAQLILGDIRETLPATLERFGATASLVHADLGGHNREKNDRFARLISPLIEPHLAQGGLMVSSDRMYFEGLEELPLPPGAVVGRCFIYRRG | not failed
MRVIVAYDGSPGADKAVGFALGLKDSIDKYFILYVSRDITDLSGQLVYISDETVEQQERLADEIVNKAKSLMTRSGVDYEVMKVDSNGEDISKVIVKIAQEKGIDVIFTGTRKLRGLDKFFLGSISSGILALSSCPVIVVP | not failed
MSTDIDCIVIGAGVVGLAIARALAAGGHEVLVAEAAEGIGTGTSSRNSEVIHAGIYYPADSLKARLCVRGKHLLYEYCAARGVPHQRLGKLIVATSDAEASQLDSIARRAGANGVDDLQHIDGAAARRLEPALHCTAALVSPSTGIVDSHALMLAYQGDAESDGAQLVFHTPLIAGRVRPEGGFELDFGGAEPMTLSCRVLINAAGLHAPGLARRIEGIPRDSIPPEYLCKGSYFTLAGRAPFSRLIYPVPQHAGLGVHLTLDLGGQAKFGPDTEWIATEDYTLDPRRADVFYAAVRSYWPALPDGALAPGYTGIRPKISGPHEPAADFAIAGPASHGVAGLVNLYGIESPGLTASLAIAEETLARLAALEHHHHHH | not failed
DRIYLVAPEDIYLVSVEERQLSIFVDQQVYKMTGTLNSIEQKLPATLFIKTHRSFILNRTKIQEIQPWFNNTLQVILTNGSKVPVSRSYVKEFKEKLGLS | failed
MQTVLKKRKKSGYGYIPDIADIRDFSYTPEKSVIAALPPKVDLTPSFQVYDQGRIGSCTANALAAAIQFERIHDKQSPEFIPSRLFIYYNERKIEGHVNYDSGAMIRDGIKVLHKLGVCPEKEWPYGDTPADQKTEEFPPGAPASKKPSDQCYKEARNYKITEYSRVAQDIDHLKACLAAGSPFVFGFSVYNSWVGNNSLPVKIPLPTKNDKLEGGHAVLCVGYDDEIRHFRIRNSWGNNVGENGYFWMPYEYIRNRQLADDFWVIKTVRK | failed
MSTPIDTYWRLRLTEVAESLRANNFAVSLVDSCEEAGRVFLDDLLPASGASSVSFGGSMTLVKCGVPEALRQRADLQLLDTFDKNLSAAEMYERRRQSLLVDMFLTGTNAVTMDGKLINLDMIGNRVGAINFGPRNVVLFVGRNKVVDTVEDGMRRIKEYASPVNAIRLDKKTPCKKTAQCMDCKSPDRICNVWTITEKCFPSGRVHVILINEDAGY | failed
MTTASGPGDLPAGSPVSSLHEALDQCMTALDLFLTNQFSEALSYLKPRTKESMYHSLTYATILEMQAMMTFDPQDILLAGNMMKEAQSLCQRHRRKSSMTDSFSNLVHRPTIDQFTEEEIHAEVCYAECLLQRAALTFLQDENMVSFIKGGIKVRNSYQTYKELDSLVQSSQYSKGESHRHFEGGVKLGVGAFNLTLSMLPTRILRLLEFVGFSGNKDYGLLQLEEGATGHSFRAVLCVMLLLCYHTFLTFVLGTGNVNIEEAEKLLKPYLNRYPKGAIFLFFAGRIEAIKGNIDAAVRRFEECCEAQQHWKQFHHMCYWELMWCFTYKGQWKMAYFYADLLSKENSWSKATYIYMKAAYLSMFGKEDYKPFGDNEVELFRAVPGLKLKIAGKSLPTEKFAIRKSRRYLSPNPISLPIPALEMMYIWNGYAVIGKQPTLTDGMLEVITKAEEMLAMGPENEYSADDDCLVKLLKGLCLKYLGRIQEAEENFRSISANEKKIKYDHYLIPNALLELALLFMEQGRNEEAIKLLESAKQNYKNYSMESRTHLRIQAATLQARSSLEDGNRSLVSSVSL | failed
